# Residue numbers refer to the chain shown, from its start.
# Experiments:
# HYARVQLRCLDGYCWLLTKSRM = test system: T1, HYARVQLRCLDGYCWLLTKSRM
# T1 sequence: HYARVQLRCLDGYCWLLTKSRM
# [1] = test system: T2, RRAPGKLTCLAS-MeTyr-CWLFWTGIA
# T2 sequence: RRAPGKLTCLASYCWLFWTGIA
# [2] = test system: T3, RRAPGCLTALASYAWLCWTGIA-COOH
# T3 sequence: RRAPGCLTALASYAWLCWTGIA
# RQLWNKLTCLASYCALIGLSGT = test system: T4, RQLWNKLTCLASYCALIGLSGT
# T4 sequence: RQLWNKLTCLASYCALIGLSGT
# [3] = test system: T5, RRAPGKLTCLASYCWLFWTGIA-COOH
# T5 sequence: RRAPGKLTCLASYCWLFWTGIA
# kLTCLASYCWLF [4] = test system: T6, kLTCLASYCWLF
# T6 sequence: KLTCLASYCWLF
# [5] = test system: T7, C(PEG5k)GGG-RRAPGKLT-Asp-LASY-Lys-WLFWTGIA
# T7 sequence: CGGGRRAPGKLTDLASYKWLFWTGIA
# compound 21 = test system: T8, compound 21
# T8 sequence: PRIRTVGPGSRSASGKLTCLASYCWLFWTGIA
# ALTCLAAYCALF = test system: T9, ALTCLAAYCALF
# T9 sequence: ALTCLAAYCALF
# KLTCLASYCWLFK = test system: T10, KLTCLASYCWLFK
# T10 sequence: KLTCLASYCWLFK
# TGS-KLTCLASYCWLF-APG = test system: T11, TGS-KLTCLASYCWLF-APG
# T11 sequence: TGSKLTCLASYCWLFAPG
# [6] = test system: T12, RRAPGKLTCLASYCWLF STGVA THANTTATAQ
# T12 sequence: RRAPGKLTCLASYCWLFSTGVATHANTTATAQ
# [7] = test system: T13, SKQGRPISPDrRAAGKLTCLASYCWLFWT
# T13 sequence: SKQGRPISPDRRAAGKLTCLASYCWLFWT
# KLTCLASYCWL-MePhe = test system: T14, KLTCLASYCWL-MePhe
# T14 sequence: KLTCLASYCWLF
# [8] = test system: T15, PRIRTVGPSSRSASGKLTCLASYCWLFWTGIA
# T15 sequence: T8 sequence with G9S
# [9] = test system: T16, ═N-O-(CH2)3-O-N═(COCH2CH2CO-KLTCLASYCWLF)2
# T16 sequence: KLTCLASYCWLF
# KLtCLASYCWLF [10] = test system: T17, KLtCLASYCWLF
# T17 sequence: KLTCLASYCWLF
# KLT-HCy-LASYCWLF = test system: T18, KLT-HCy-LASYCWLF
# T18 sequence: KLTXLASYCWLF
# RRAPGKLQCLASYCWLFWTGFA = test system: T19, RRAPGKLQCLASYCWLFWTGFA
# T19 sequence: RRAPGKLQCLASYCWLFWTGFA
# KITCLASYCWLF = test system: T20, KITCLASYCWLF
# T20 sequence: KLTCLASYCWLF
# [11] = test system: T21, RRAPGKLTCLASYCWLF WTGLA PGRGQGGVAG
# T21 sequence: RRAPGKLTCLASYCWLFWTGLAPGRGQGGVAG
# compound 4 = test system: T22, compound 4
# T22 sequence: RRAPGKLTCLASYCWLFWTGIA
# [12] = test system: T23, PRIRTVGPGSRSASGKSTCLASYCWLFWTGIA
# T23 sequence: T8 sequence with L17S
# [13] = test system: T24, SKQGRPISPArRAAGKLTCLASYCWLFWTGIA
# T24 sequence: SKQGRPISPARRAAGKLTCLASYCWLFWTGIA
# [14] = test system: T25, RRAPGKLQCLASYCWLFWTG-Cha-A
# T25 sequence: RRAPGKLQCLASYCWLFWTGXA
# KLTCLASYCWLf [15] = test system: T26, KLTCLASYCWLf
# T26 sequence: KLTCLASYCWLF
# [16] = test system: T27, RRAPGKLQCLASYCWLFWTG-Tle-A
# T27 sequence: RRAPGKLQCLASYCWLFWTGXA
# [17] = test system: T28, SKQGRPISPDrRAAGKLTCLAS-NMeTyr-CWLFWTGIA
# T28 sequence: T24 sequence with A10D
# KLTCLKSYCWLF = test system: T29, KLTCLKSYCWLF
# T29 sequence: KLTCLKSYCWLF
# [18] = test system: T30, PRIRTVGPGSRSASGKLTCLASYCWLLWTGIA
# T30 sequence: T8 sequence with F27L
# KLT-Lys-LASY-Glu-WLF = test system: T31, KLT-Lys-LASY-Glu-WLF
# T31 sequence: KLTKLASYEWLF
# Lys(Me)-LTCLASYCWLF = test system: T32, Lys(Me)-LTCLASYCWLF
# T32 sequence: KLTCLASYCWLF
# [19] = test system: T33, RRAPGKLTCLASYCWLFWTGIK(PEG2-Biotin)
# T33 sequence: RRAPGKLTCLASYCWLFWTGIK
# [20] = test system: T34, PRIRTVSPGSRSASGKSTCLASYCWLFWTGIA
# T34 sequence: T8 sequence with G7S, L17S
# KLTCLASYAWLF = test system: T35, KLTCLASYAWLF
# T35 sequence: KLTCLASYAWLF
# compound 1 = test system: T36, compound 1
# T36 sequence: KLTCLASYCWLF
# [21] = test system: T37, RRAPGKLQCLASYCWLFWT-Aib-IA
# T37 sequence: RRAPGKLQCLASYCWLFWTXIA
# KKTCVASFCQMI = test system: T38, KKTCVASFCQMI
# T38 sequence: KKTCVASFCQMI
# [22] = test system: T39, RRAPGKLT-Asp-LASY-Dap-WLFWTGIA-CONH2
# T39 sequence: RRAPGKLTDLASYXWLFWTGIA
# [23] = test system: T40, RRAPGKLTCLASYCWLF LTGWA RVPLPPRPHP
# T40 sequence: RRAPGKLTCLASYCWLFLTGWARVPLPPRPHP
# KLTALASYCWLF = test system: T41, KLTALASYCWLF
# T41 sequence: KLTALASYCWLF
# [24] = test system: T42, PRIRTVGPGSRSASGKLTCLASACWLFWTGIA
# T42 sequence: T8 sequence with Y23A
# KLTCL-Abu-SYCWLF = test system: T43, KLTCL-Abu-SYCWLF
# T43 sequence: KLTCLXSYCWLF
# [25] = test system: T44, PARGKERELM RRAPG KLTCLASYCWLFWTGIA
# T44 sequence: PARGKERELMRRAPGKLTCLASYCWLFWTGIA
# [26] = test system: T45, PRIRSVGPGSRSASGKLTCLASYCWLFWTGIA
# T45 sequence: T8 sequence with T5S
# LTWREKLACLASYCWLFLWGAP = test system: T46, LTWREKLACLASYCWLFLWGAP
# T46 sequence: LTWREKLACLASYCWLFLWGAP
# RRAPGKLTClASYCWLFWTGIA = test system: T47, RRAPGKLTClASYCWLFWTGIA
# T47 sequence: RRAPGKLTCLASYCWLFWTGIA
# rRAAGKATCLASYCWLFATGIA = test system: T48, rRAAGKATCLASYCWLFATGIA
# T48 sequence: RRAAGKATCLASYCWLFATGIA
# GASGRRRTCVASYCLLFQSGLP = test system: T49, GASGRRRTCVASYCLLFQSGLP
# T49 sequence: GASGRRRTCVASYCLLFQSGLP
# [27] = test system: T50, PQTRDPSSRD RRAPG KLTCLASYCWLFWTGIA
# T50 sequence: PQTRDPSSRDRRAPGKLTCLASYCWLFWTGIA
# [28] = test system: T51, Biotin-PEG2-LYTAWIKCQFARLPGCALSGRW
# T51 sequence: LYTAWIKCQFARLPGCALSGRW
substance,measurement,setting,value
human Factor IXa,"Vmax, FXa generation assay",HYARVQLRCLDGYCWLLTKSRM,> 2.5
same,"Vmax, FXa generation assay; (++) means 1-2",[1],(++)
same,"Vmax, FXa generation assay",[2],> 0.1
same,"Vmax, FXa generation assay; (++) means 1-2",RQLWNKLTCLASYCALIGLSGT,(++)
same,"Vmax, FXa generation assay",[3],> 2
same,"Vmax, FXa generation assay",kLTCLASYCWLF [4],> 2
same,"Vmax, FXa generation assay; (++) means 1-2",[5],(++)
same,"Vmax, FXa generation assay with hFIXa",compound 21,> 3
same,"Vmax, FXa generation assay; (++) means 1-2",ALTCLAAYCALF,(++)
same,"Vmax, FXa generation assay",KLTCLASYCWLFK,> 3
same,"Vmax, FXa generation assay",TGS-KLTCLASYCWLF-APG,> 2
same,"Vmax, FXa generation assay",[6],> 3
same,"Vmax, FXa generation assay",[7],> 2
same,"Vmax, FXa generation assay; (++) means 1-2",KLTCLASYCWL-MePhe,(++)
same,"Vmax, FXa generation assay",[8],> 3
same,"Vmax, FXa generation assay",[9],> 3
same,"Vmax, FXa generation assay",KLtCLASYCWLF [10],> 2
same,"Vmax, FXa generation assay",KLT-HCy-LASYCWLF,> 2
same,"Vmax, FXa generation assay",RRAPGKLQCLASYCWLFWTGFA,> 2
same,"Vmax, FXa generation assay",KITCLASYCWLF,> 2
same,"Vmax, FXa generation assay",[11],> 3
same,KM (nM) of hFIXa for FX,compound 4,11 nM
same,"Vmax, FXa generation assay with hFIXa",compound 4,> 2
same,"kcat (min^-1) of hFIXa for FX, compound at 1 µM",compound 4,0.0171 min⁻¹
same,Δ KM (Km compound/Km buffer),compound 4,0.14
same,"Vmax, FXa generation assay",[12],> 3
same,"Vmax, FXa generation assay",[13],> 3
same,"Vmax, FXa generation assay",[14],> 3
same,"Vmax, FXa generation assay",KLTCLASYCWLf [15],> 3
same,"Vmax, FXa generation assay",[16],> 2
same,"Vmax, FXa generation assay",[17],> 0.3
same,"Vmax, FXa generation assay; (++) means 1-2",KLTCLKSYCWLF,(++)
same,"Vmax, FXa generation assay",[18],> 3
same,"Vmax, FXa generation assay; (++) means 1-2",KLT-Lys-LASY-Glu-WLF,(++)
same,"Vmax, FXa generation assay; (++) means 1-2",Lys(Me)-LTCLASYCWLF,(++)
same,"Vmax, FXa generation assay; (++) means 1-2",[19],(++)
same,"Vmax, FXa generation assay",[20],> 3
same,"Vmax, FXa generation assay; (++) means 1-2",KLTCLASYAWLF,(++)
same,"(kcat/KM)app (M^-1s^-1) of FIXa on the chromogenic substrate, compound 1 at 10 µM",compound 1,1360 M⁻¹ s⁻¹
same,"Vmax (mOD/min min), with phospholipids",compound 1,3.98 mOD/min min
same,"Vmax (mOD/min min), without phospholipids",compound 1,2.6 mOD/min min
same,"Vmax, FXa generation assay with hFIXa",compound 1,> 2
same,"kcat (min^-1) of hFIXa for FX, compound at 3 µM",compound 1,0.0144 min⁻¹
same,Δ KM (Km compound/Km buffer),compound 1,0.31
same,"Vmax, FXa generation assay; (++) means 1-2",[21],(++)
same,"Vmax, FXa generation assay",KKTCVASFCQMI,> 4
same,"Vmax, FXa generation assay",[22],> 2
same,"Vmax, FXa generation assay; (++) means 1-2",[23],(++)
same,"Vmax, FXa generation assay; (++) means 1-2",KLTALASYCWLF,(++)
same,"Vmax, FXa generation assay; (++) means 1-2",[24],(++)
same,"Vmax, FXa generation assay",KLTCL-Abu-SYCWLF,> 2
same,"Vmax, FXa generation assay",[25],> 3
same,"Vmax, FXa generation assay",[26],> 3
same,"Vmax, FXa generation assay; (++) means 1-2",LTWREKLACLASYCWLFLWGAP,(++)
same,"Vmax, FXa generation assay; (++) means 1-2",RRAPGKLTClASYCWLFWTGIA,(++)
same,"Vmax, FXa generation assay; (++) means 1-2",rRAAGKATCLASYCWLFATGIA,(++)
same,"Vmax, FXa generation assay",GASGRRRTCVASYCLLFQSGLP,> 0.1
same,"Vmax, FXa generation assay",[27],> 3
same,"Vmax, FXa generation assay",[28],> 1.5

# Source: US20140303084
